From publication PMC7717987, “αIIbβ3 variants in ten families with autosomal dominant macrothrombocytopenia: Expanding the mutational and clinical spectrum” (PLoS ONE, 2020)

Key:
Conditions in all cases: partners not purified
integrin αIIbβ3 [1] = target: T1, integrin αIIbβ3 (human (endogenous in platelets), UniProt P08514-1 32-1039; P05106-1 27-788); test: flow cytometry on cells; citrated whole blood of healthy controls stimulated with ADP (10 μM); platelets gated on FSC/SSC and CD42b; bound fibrinogen detected with FITC anti-bFG (clone 9F9); platelet activation index = (MFI test tube - MFI with EDTA 7 mM) / MFI with EDTA
T1 construct: integrin alpha-IIb (αIIb, GPIIb), human; integrin beta-3 (β3, GPIIIa, CD61), human; The platelets of the heterozygous patients carry wild-type and variant integrin together and are not made molecules; also called glycoprotein (GP) IIb/IIIa receptor complex; GPIIb/IIIa; source: endogenous, on platelets in citrated whole blood of healthy blood donors

integrin αIIbβ3 [2] = target: T1, integrin αIIbβ3; test: flow cytometry on cells; citrated whole blood of healthy controls stimulated with TRAP-6 (20 μM); platelets gated on FSC/SSC and CD42b; bound fibrinogen detected with FITC anti-bFG (clone 9F9); platelet activation index = (MFI test tube - MFI with EDTA 7 mM) / MFI with EDTA
integrin αIIbβ3 [3] = target: T1, integrin αIIbβ3; test: flow cytometry on cells; citrated whole blood of healthy controls stimulated with ADP (10 μM); platelets gated on FSC/SSC and CD42b; bound fibrinogen detected with FITC anti-bFG (clone 9F9); platelet activation index = (MFI test tube - MFI with EDTA 7 mM) / MFI with EDTA; remark: listed apart in the source
integrin αIIbβ3 [4] = target: T1, integrin αIIbβ3; test: flow cytometry on cells; citrated whole blood of healthy controls stimulated with TRAP-6 (20 μM); platelets gated on FSC/SSC and CD42b; bound fibrinogen detected with FITC anti-bFG (clone 9F9); platelet activation index = (MFI test tube - MFI with EDTA 7 mM) / MFI with EDTA; remark: listed apart in the source

platelet activation index (PAI) by bound fibrinogen, median (integrin αIIbβ3 [1]): 19 fold increase in MFI over EDTA
platelet activation index (PAI) by bound fibrinogen, median (integrin αIIbβ3 [2]): 16 fold increase in MFI over EDTA
platelet activation index (PAI) by bound fibrinogen, mean (integrin αIIbβ3 [3]): 19 fold increase in MFI over EDTA
platelet activation index (PAI) by bound fibrinogen, median (integrin αIIbβ3 [3]): 17 fold increase in MFI over EDTA
platelet activation index (PAI) by bound fibrinogen, mean (integrin αIIbβ3 [4]): 15 fold increase in MFI over EDTA
platelet activation index (PAI) by bound fibrinogen, median (integrin αIIbβ3 [4]): 13 fold increase in MFI over EDTA
B1: fibrinogen (complex, human (endogenous in whole blood))
chain 1: ADSGEGDFLAEGGGVRGPRVVERHQSACKDSDWPFCSDEDWNYKCPSGCRMKGLIDEVNQDFTNRINKLKNSLFEYQKNNKDSHSLTTNIMEILRGDFSSANNRDNTYNRVSEDLRSRIEVLKRKVIEKVQHIQLLQKNVRAQLVDMKRLEVDIDIKIRSCRGSCSRALAREVDLKDYEDQQKQLEQVIAKDLLPSRDRQHLPLIKMKPVPDLVPGNFKSQLQKVPPEWKALTDMPQMRMELERPGGNEITRGGSTSYGTGSETESPRNPSSAGSWNSGSSGPGSTGNRNPGSSGTGGTATWKPGSSGPGSTGSWNSGSSGTGSTGNQNPGSPRPGSTGTWNPGSSERGSAGHWTSESSVSGSTGQWHSESGSFRPDSPGSGNARPNNPDWGTFEEVSGNVSPGTRREYHTEKLVTSKGDKELRTGKEKVTSGSTTTTRRSCSKTVTKTVIGPDGHKEVTKEVVTSEDGSDCPEAMDLGTLSGIGTLDGFRHRHPDEAAFFDTASTGKTFPGFFSPMLGEFVSETESRGSESGIFTNTKESSSHHPGIAEFPSRGKSSSYSKQFTSSTSYNRGDSTFESKSYKMADEAGSEADHEGTHSTKRGHAKSRPVRGIHTSPLGKPSLSP
chain 2: QGVNDNEEGFFSARGHRPLDKKREEAPSLRPAPPPISGGGYRARPAKAAATQKKVERKAPDAGGCLHADPDLGVLCPTGCQLQEALLQQERPIRNSVDELNNNVEAVSQTSSSSFQYMYLLKDLWQKRQKQVKDNENVVNEYSSELEKHQLYIDETVNSNIPTNLRVLRSILENLRSKIQKLESDVSAQMEYCRTPCTVSCNIPVVSGKECEEIIRKGGETSEMYLIQPDSSVKPYRVYCDMNTENGGWTVIQNRQDGSVDFGRKWDPYKQGFGNVATNTDGKNYCGLPGEYWLGNDKISQLTRMGPTELLIEMEDWKGDKVKAHYGGFTVQNEANKYQISVNKYRGTAGNALMDGASQLMGENRTMTIHNGMFFSTYDRDNDGWLTSDPRKQCSKEDGGGWWYNRCHAANPNGRYYWGGQYTWDMAKHGTDDGVVWMNWKGSWYSMRKMSMKIRPFFPQQ
chain 3: YVATRDNCCILDERFGSYCPTTCGIADFLSTYQTKVDKDLQSLEDILHQVENKTSEVKQLIKAIQLTYNPDESSKPNMIDAATLKSRKMLEEIMKYEASILTHDSSIRYLQEIYNSNNQKIVNLKEKVAQLEAQCQEPCKDTVQIHDITGKDCQDIANKGAKQSGLYFIKPLKANQQFLVYCEIDGSGNGWTVFQKRLDGSVDFKKNWIQYKEGFGHLSPTGTTEFWLGNEKIHLISTQSAIPYALRVELEDWNGRTSTADYAMFKVGPEADKYRLTYAYFAGGDAGDAFDGFDFGDDPSDKFFTSHNGMQFSTWDNDNDKFEGNCAEQDGSGWWMNKCHAGHLNGVYYQGGTYSKASTPNGYDNGIIWATWKTRWYSMKKTTMKIIPFNRLTIGEGQQHHLGGAKQAGDV
notes: fibrinogen alpha chain, human; fibrinogen beta chain, human; fibrinogen gamma chain, human; Plasma fibrinogen of the donor's own blood; no fibrinogen was added; also called FG; soluble FG; source: endogenous, in citrated whole blood of healthy blood donors; copies: + +
